From the supplement of paper PMC12042874
± gives the uncertainty stated by the source.

Experiment: amyloid nucleation score (Sup35N fusion, yeast selection) (log enrichment); library NNK1; higher = more nucleation; inactive = no reads after selection
Summary of the method: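 In psi-negative yeast, Sup35N fusions carrying peptides of 20 random codons were induced with 100 μM copper sulfate for 24 hours. The cells then grew 7 days at 30°C on medium lacking adenine and uracil, and plasmid inserts from input and output were Illumina-sequenced, excluding sequences with under 100 input reads. Nucleation score is the DiMSum log enrichment of output over input reads, centred on the mode score of non-aggregating sequences.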

Row | Substance | amyloid nucleation score
1 | FRVGYFAHSCRYVRSGRHMV | 0.401 ± 0.26
2 | MLKMTVYFHIMID | -0.065 ± 1.1
3 | YISDSLYGFDEVGRDWLRVA | -0.025 ± 0.56
4 | MTTHVRWFNGLMSP | inactive
5 | TDMLMLIMIRVSLIGRRTFQ | inactive
6 | KWDKVALYFDQVQITELCIY | 4.21 ± 0.091
7 | GWGLA | inactive
8 | NIIIVNSSVG | 1.49 ± 0.37
9 | AHSANSKIVSFRMLDDYRPD | 1.1 ± 0.39
10 | FYVGDVITHHWEAELNYSDV | -0.573 ± 1.7
11 | IIWMSRRSSSLNEKGLKFNY | -0.548 ± 0.29
12 | YFCSSGWANVMLLLSVQTNR | 0.173 ± 0.35
13 | SYNFWLRMAGRCSKM | -0.618 ± 0.6
14 | HFGWNLGPMHTMKSSV | 0.464 ± 0.49
15 | SMRSNWPGYCTRNGFTLSLL | -0.684 ± 0.32
16 | RIGFPVRYEEFALRFIYILE | -0.261 ± 0.72
17 | MLSMFGWISSIFVYYYLNKR | 0.571 ± 0.17
18 | LMLERFRLLYNEDFGGKVMF | 0.448 ± 0.47
19 | CAVLLGSIVHMLFAYE | 0.132 ± 0.61
20 | SNVVNGLDTYSQPGKGWCVR | 0.581 ± 0.37
21 | TDWARTRSQRHVLHDSPAGL | -0.452 ± 1.4
22 | HAHVQCGESE | 0.092 ± 0.73
23 | SLLMRIS | -0.434 ± 0.61
24 | DMTWNKQHFYGCSISYRSGT | 5.99 ± 0.086
25 | TGFLR | 0.12 ± 0.4

Row | Substance | amyloid nucleation score
26 | FYRQFHHLGEDPLH | -0.583 ± 0.53
27 | VARYSDRSNTEAYRVRFLGI | 1.28 ± 0.23
28 | GWSIMVGQMASLLWCIRAGT | 0.116 ± 0.3
29 | NRNISAIGACTGCTNMVFYS | 5.64 ± 0.11
30 | VNDWALVLSNLDSNVLSSRT | 0.566 ± 0.24
31 | DYFLCKFSTDDPCLVFISWE | inactive
32 | PYHIKLLQR | 1.44 ± 0.18
33 | VAVTSSMFFRPNFNLNTVLS | 3.69 ± 0.067
34 | NTVRNMSVNELFVSFDRGWF | 4.83 ± 0.063
35 | SCLLTMSLE | 0.11 ± 0.43
36 | CSYPVECSGSMYVSEKTSIF | inactive
37 | GGVLLRCRTSDNTGNQRVW | inactive
38 | DYKVTRPVDLVFDFGGIVYT | 0.714 ± 0.22
39 | QRPLCENRLDYKLGYSTMTF | -0.646 ± 1.6
40 | NLSFLK | -0.313 ± 1.3
41 | RGGSYMFRLYCVFLYGCYFG | -0.577 ± 0.72
42 | MYYDMLSCFGEVKRS | -0.183 ± 0.79
43 | RRPASFLFFTYPILLQVFTF | -1.22 ± 2.1
44 | CSFYHVFRCSVGFDVFFSTD | -0.259 ± 0.41
45 | NRRVCEVR | -0.148 ± 1.1
46 | AQLGDDYVRCHSTILSTRRL | 0.167 ± 0.62
47 | ITRPGKWGRGD | 0.782 ± 0.35
48 | KWNFVHMDQKGKELNSLFSL | -0.649 ± 0.54
49 | ISKFFYLVW | 0.097 ± 0.52
50 | YYSYMNCIMITISLLMLVLQ | -0.052 ± 0.21

Row | Substance | amyloid nucleation score
51 | ETAEMIAVPDRAHF | 1.05 ± 0.57
52 | YRYSSIF | -0.954 ± 1.4
53 | AMFAMLNDRGRLGACYLVGK | 1.55 ± 0.78
54 | CSDSNIPLHNHSWGTSVVDN | 1.31 ± 0.63
55 | FIIDYKTDKRSEFWL | 0.215 ± 0.35
56 | CSGCQARIWALDRRRRVEVS | 0.213 ± 0.69
57 | NTQNRSEVNQGVVGQVR | -0.378 ± 0.36
58 | ENEAGATYDGMMVVGSELSS | 0.997 ± 0.43
59 | QFEDLHQLYSMCALPDSTKH | -0.366 ± 0.93
60 | YQQPEDCMFECTVVYSSKSR | -0.062 ± 0.26
61 | KSMECSFAWLWDSREFIFCH | -1.67 ± 1.4
62 | SDLELTTLFF | -0.57 ± 0.37
63 | FIVDLWCMLFNSILAGCVVV | -0.008 ± 0.21
64 | YVRIVIAYFKFSKQFSSQLV | 0.089 ± 0.22
65 | NMQLAPTGPNTVPISYDLFP | -1.46 ± 2.4
66 | LPIRASGNHL | 0.495 ± 0.79
67 | FIRCVNSV | -0.745 ± 2.4
68 | LAYRR | 0.274 ± 0.63
69 | WSARHKHNTKCYFVRGQ | -0.081 ± 0.34
70 | GACECDGYVTWCLRGIFGAK | -1.41 ± 0.94
71 | SSCGFMRNVIITMHKADIDR | inactive
72 | PGRIYGRSGCYRV | 0.482 ± 0.69
73 | FWGFVGTVMLLKCVFHGVSA | 0.628 ± 0.63
74 | SVCTGRYPSRAHGEGASNTC | 0.08 ± 0.66
75 | GNMSCPFVQRREVLLC | -0.383 ± 1.4

Row | Substance | amyloid nucleation score
76 | KWNCLVSCRLCELYLIPLI | 3.58 ± 0.081
77 | YMIMQLDACFECLTFQGQY | 5.9 ± 0.087
78 | WRARLWDLNPWHVAREMIAG | 0.096 ± 0.93
79 | ILRTFVSSCVDVGTYSTTKC | -1.52 ± 2.4
80 | GEKCGSVPGHQLGTDILSRA | 0.819 ± 0.67
81 | NRSGGTSAIDYHSWLVYHAG | -0.161 ± 0.28
82 | WTRSM | 0.018 ± 0.41
83 | VWRSVSRCSCVSSSIGGVTV | -0.868 ± 0.39
84 | YQYGAWNSANVSSNN | 1.19 ± 0.57
85 | VSNTWYLTVNLFLYIIPCN | 6.755 ± 0.058
86 | TFSTGRACLNEVRNVGMFKM | 0.75 ± 0.54
87 | LVGTTRLMRFWSRVMT | -0.171 ± 0.41
88 | ETHVRAPSGGNAGPLRRGSS | -0.877 ± 0.52
89 | TDNTVVVMHWFHTFSPGARK | 2.08 ± 0.28
90 | FRNDGYLNSYMSRRVIIPSD | -0.194 ± 0.23
91 | NHGCQIFRG | 0.667 ± 0.64
92 | SVLIRALFTFKLRSVERQDY | 3.82 ± 0.069
93 | NRAECSFVCTEYVNICK | -0.313 ± 0.43
94 | VSWDSMYMAMPWVIVHVL | inactive
95 | NRLVMLLLTLSNGSCEKVRD | 2.95 ± 0.094
96 | DLEGMPELARDVGAKI | -0.825 ± 0.98
97 | SYKNVGRV | 0.273 ± 0.86
98 | KFTVVVAVSCRRLPSNICRI | 0.141 ± 0.53
99 | DKNML | 1.44 ± 0.54
100 | FLEFWPSVTVYSRCFLVFGR | -1.06 ± 1.1

Row | Substance | amyloid nucleation score
101 | MQVNIVGVSILVAWPR | 6.48 ± 0.071
102 | LHTKVV | 0.431 ± 0.77
103 | YRKRYDWWTVEAVLASVFGS | 1.18 ± 0.57
104 | NEHQVNEG | 0.478 ± 0.48
105 | SSSVCPLHSADSCVSGISAD | 1.73 ± 0.64
106 | QFKRKIICQDKSVAFKCNYR | -0.493 ± 0.22
107 | CVDRQFAAVRQVTTIQTWCG | 0.983 ± 0.26
108 | KNFFPFAFVFL | 7.083 ± 0.053
109 | HYGVDEAFGRWDGVLMCQKV | -0.134 ± 0.4
110 | PANSSMSSNY | 0.091 ± 1.5
111 | AWRDTDVASSVICG | 0.932 ± 0.97
112 | WSSTRPCFLFQLRMAMLLCS | 0.154 ± 0.59
113 | FYRFLQPMS | -0.809 ± 0.88
114 | ALTRS | -0.074 ± 0.49
115 | ISSKLLFSESSPSMSIQTHW | 0.765 ± 0.64
116 | CLVVYHSRKAW | 2.64 ± 0.16
117 | ADCPLCGTYNLSYCMVRLDI | 0.349 ± 0.28
118 | GFAFSNVCIVAYYRYFSSRR | 3.26 ± 0.15
119 | NLYYWYGTVSIWFYNRWFGV | -0.021 ± 0.66
120 | ESSGRGCVPSEKIDEHGPVT | -0.319 ± 1
121 | SNLVGEVYCNL | 0.914 ± 0.57
122 | HCNIMIDSTSLFNGGLVFYN | 4.83 ± 0.059
123 | ILLMSNYYAVRQEEFDQLPV | inactive
124 | PLKHVRQDWCTKLICNSGNY | -0.357 ± 0.43
125 | VLRWYEDNPFC | 0.291 ± 0.32

Row | Substance | amyloid nucleation score
126 | LCNIITGVSSIGAYWSTKIL | 1.22 ± 0.57
127 | SLYFFLFRCVCKRLYSGWNV | -0.481 ± 1
128 | WRTSEFSHSLVKYVLSRVLT | 1.31 ± 0.56
129 | RDVDRGMHQMAPSTGVRLVL | 2.81 ± 0.14
130 | GTSSGLV | 0.104 ± 1.1
131 | HRKTSPISENQVY | -0.59 ± 0.27
132 | RAKTWDGRGAKQP | 1.22 ± 0.64
133 | QYYFLLYAKSDLSKWEHHQD | -0.282 ± 0.97
134 | SMLLSRKHCGGVNEKHFM | -0.311 ± 0.35
135 | WLKVGGEFSWSVQSVY | 0.071 ± 0.55
136 | RLRDIG | -0.684 ± 1.2
137 | GYFYFRQIIQSDRPFIYNIP | -0.16 ± 0.38
138 | LLICADVITFCFECTMRTGF | 4.13 ± 0.064
139 | QAVRIVGERLAFFGN | 0.607 ± 0.65
140 | TRRFR | -0.181 ± 0.41
141 | TIWFAF | -0.128 ± 0.64
142 | VPVYNMNFYAVLHILSFCLD | 4.18 ± 0.057
143 | ANVNSWTRPAIMIVLDWGVP | 0.868 ± 0.58
144 | AYMWLGAINICLWYWSLGR | 3.02 ± 0.21
145 | NGKGFNDVVKLRSGRRWGVR | -0.111 ± 1.4
146 | GTTHRDS | -0.263 ± 0.35
147 | SINSRKSFMFIF | 2.39 ± 0.16
148 | LLAVAGPLLWLYRYMISFIS | 0.071 ± 0.97
149 | TYLIKMSVT | 0.313 ± 0.39
150 | TVTYLLCYYDSALYRCATGL | 5.553 ± 0.052

Row | Substance | amyloid nucleation score
151 | DSRGHGEPRRTWEW | -0.006 ± 0.58
152 | VLWTLVKIPHFTPNIMFRYY | 0.053 ± 1.1
153 | GLRVPPHDVLMSIARLDVSK | inactive
154 | RWCLSTRKFSWR | 0.305 ± 0.42
155 | AIRWYGMDDMPTRGYQWSPA | -0.128 ± 0.59
156 | TLCQFSSARACYAWVVFPTY | 1.19 ± 0.21
157 | CRIQFSSVRMDDSCAQGRKD | 0.504 ± 0.67
158 | SSYCNLVASIL | 0.649 ± 0.53
159 | IWYSDVGPTTN | -1.14 ± 0.56
160 | GNALRMVWERTQGTLPEYRR | 0.219 ± 0.59
161 | RAGCPDVGRRLSCSRSVLPR | 0.789 ± 0.27
162 | SRYWKFRCTFSTKFESTKRS | 3.95 ± 0.17
163 | YTNLAT | 0.251 ± 0.5
164 | SEWSRKGVYNACLITG | -0.01 ± 0.48
165 | GVDRVQCVFLSRVEWLGTPG | 0.198 ± 0.67
166 | IVSKFSYQFKSIGINFYFFR | 4.18 ± 0.12
167 | VGITDSNRVLILSGQIHGVM | 0.6 ± 0.46
168 | CYVKTYKIKSLRR | -0.07 ± 1.4
169 | GMAWSRSLRVGHSGIMGRAV | 0.189 ± 0.22
170 | MLRMLAVQCFSSCIARLD | 2.05 ± 0.3
171 | IRCRQQARTMYNKMEKMGRG | -0.433 ± 0.3
172 | MRPVGTRFSSIP | -0.201 ± 0.55
173 | GHSLHLWVTTKS | 0.561 ± 0.66
